Test system: Ir-CPI (Ixodes ricinus Contact Phase Inhibitor), recombinant, without its peptide signal

Substance: factor XIa
- activation of factor XII into factor XIIa by factor XIa, reconstituted system with purified factors, chromogenic substrate: Ir-CPI inhibits ... the activation of factor XII into factor XIIa by factor XIa
- amidolytic activity (chromogenic substrate S-2366), protease preincubated with Ir-CPI at 1:5 molar ratio: The results obtained did not show any effect of Ir-CPI protein on the amidolytic activity of these factors

Substance: kallikrein
- activation of factor XII into factor XIIa by kallikrein, reconstituted system with purified factors, chromogenic substrate: Ir-CPI did not inhibit the activation of factor XII into factor XIIa by kallikrein
- amidolytic activity (chromogenic substrate S-2302), protease preincubated with Ir-CPI at 1:5 molar ratio: The results obtained did not show any effect of Ir-CPI protein on the amidolytic activity of these factors
